Measurements from patent US20220204611A1 (Amgen, published 2022).
Substitutions are numbered along the chain they refer to.

T1: recombinant soluble human TREM2 protein (human TREM2 ECD-FlagHis) (human, UniProt Q9NZC2 19-174)
T1 sequence: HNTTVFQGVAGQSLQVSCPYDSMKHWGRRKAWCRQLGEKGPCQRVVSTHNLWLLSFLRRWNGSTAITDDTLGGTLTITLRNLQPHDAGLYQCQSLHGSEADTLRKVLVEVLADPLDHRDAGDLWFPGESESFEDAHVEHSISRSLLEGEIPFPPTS

T2: human TREM2 on cells (human, UniProt Q9NZC2 19-230)
T2 sequence: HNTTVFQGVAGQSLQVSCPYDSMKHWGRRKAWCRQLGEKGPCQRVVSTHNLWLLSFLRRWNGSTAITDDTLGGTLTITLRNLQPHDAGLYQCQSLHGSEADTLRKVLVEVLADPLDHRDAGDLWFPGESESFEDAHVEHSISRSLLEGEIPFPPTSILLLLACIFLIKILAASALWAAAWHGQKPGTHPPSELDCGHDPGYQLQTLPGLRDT

T3: recombinant soluble cynomolgus TREM2 protein (cynomolgus TREM2 extracellular domain coupled to a Flag/His tag) (cynomolgus, UniProt A0A2K5UY34 49-204)
T3 construct: extracellular domain; also called Cyno TREM2
T3 sequence: T1 sequence with A10E, W60R, L89F, F125V

B1: 6E7 (antibody, human IgG2, V domains shown)
VH: EVQLVQSGAEVKKPGESLKISCKGSGYSFTSYWIAWVRQMPGKGLEWMGIIYPGDSDTRYSPSFQGQVTISADKSISTAYLQWSSLKASDTAMYFCARQRTFYYDSSDYFDYWGQGTLVTVSS
VL: DIQMTQSPSSVSASVGDRVTITCRASQGISSWLAWYQQKPGKAPKLLIYAASSLQNGVPSRFSGSGSGTDFTLTISSLQPEDFATYFCQQADSFPRTFGQGTKLEIK
notes: human IgG2 from hybridoma
B2: 10E3 (antibody, human IgG2, V domains shown)
VH: EVQLVQSGAEVKKPGESLMISCKGSGYSFTNYWIGWVRQMPGKGLEWMGIIYPGDSDTRYSPSFQGQVTISADKSISTAYLQWSSLKASDTAMYFCARRRQGIWGDALDIWGQGTLVTVSS
VL: EIVMTQSPATLSVSPGERATLSCRASQSVSSNLAWFQQKPGQAPRLLIYGASTRATGIPARFSVSGSGTEFTLTISSLQSEDFAFYYCLQDNNWPPTFGPGTKVDIK
notes: human IgG2 from hybridoma
B3: 13E7 (antibody, human IgG2, V domains shown)
VH: B2 VH with N31S, I110F
VL: B2 VL with F85V
notes: human IgG2 from hybridoma
B4: 5E3 (antibody, human IgG2, V domains shown)
VH: QVQLVQSGAEVKKPGASVKVSCKASGYTFTGYYIHWVRQAPGLGLEWMGWINPYSGGTTSAQKFQGRVTMTRDTSISSAYMELSRLRSDDTAVYYCARDGGYLALYGTDVWGQGTTVTVSS
VL: DIQMTQSPSSLSASVGDRVTITCRASQGISNYLAWFQQKPGKAPKSLIYAASSLQSGVPSKFSGSGSGTDFTLTISSLQPEDFATYYCQQYSTYPFTFGPGTKVDIK
notes: human IgG2 from hybridoma

Biological target: T1, recombinant soluble human TREM2 protein …
Assay: Octet BLI binning; competitor: load Ab 26F2
Method in brief: (§1)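 Sixteen hybridoma-derived anti-TREM2 antibodies were cross-tested pairwise as load and sandwich antibodies on anti-human Fc biosensors at 25° C. Assay buffer held 10 mM Tris pH 7.6, 150 mM NaCl, 1 mM CaCl₂, 0.1% Triton X-100 and 1 mg/mL BSA.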

| Binder | sandwich binding signal |
| --- | --- |
| B1 | 0.506 |
| B2 | 0.354 |
| B3 | 0.363 |
| B4 | -0.045 |

Biological target: T1, recombinant soluble human TREM2 protein …
Assay: Octet BLI binning; competitor: load Ab 24A10
Method in brief: as §1

| Binder | sandwich binding signal |
| --- | --- |
| B1 | 0.499 |
| B2 | 0.38 |
| B3 | 0.383 |
| B4 | 0.441 |

Biological target: T1, recombinant soluble human TREM2 protein …
Assay: Octet BLI binning; competitor: load Ab 24F4
Method in brief: as §1

| Binder | sandwich binding signal |
| --- | --- |
| B1 | 0.054 |
| B2 | -0.002 |
| B3 | -0.002 |
| B4 | 0.434 |

Biological target: T1, recombinant soluble human TREM2 protein …
Assay: Octet BLI binning; competitor: load Ab 26C10
Method in brief: as §1

| Binder | sandwich binding signal |
| --- | --- |
| B1 | 0.472 |
| B2 | 0.348 |
| B3 | 0.369 |
| B4 | -0.073 |

Biological target: T2, human TREM2 on cells
Assay: cell-based or functional assay

| Binder | pSyk EC50 [nM] |
| --- | --- |
| B1 | 0.29 |
| B2 | 0.4 |
| B3 | 0.4 |
| B4 | 0.24 |

Biological target: T1, recombinant soluble human TREM2 protein …
Assay: Octet BLI binning; competitor: load Ab 5E3
Method in brief: as §1

| Binder | sandwich binding signal |
| --- | --- |
| B1 | 0.565 |
| B2 | 0.415 |
| B3 | 0.428 |
| B4 | -0.165 |

Biological target: T1, recombinant soluble human TREM2 protein …
Assay: Octet BLI binning; competitor: load Ab 33B12
Procedure: Each of sixteen different anti-TREM2 antibodies produced from hybridomas were quantitated and loaded onto one of the anti-human Fc sensors at 5 μg/mL for 2 minutes (“Load Antibody”). The sensor was then blocked with 100 μg/mL of an irrelevant human IgG2 antibody for 5 minutes. […] Next, each of the sixteen different anti-TREM2 antibodies (“Sandwich Antibody”) was added to the sensor at 5 μg/mL and allowed to bind for 5 minutes. All assay buffers contained 10 mM Tris (pH 7.6), 0.1% Triton X-100, 150 mM NaCl, 1 mM CaCl₂, and 1 mg/mL BSA. The assay was conducted at 25° C. Experimental kinetic results were fit to a 1:1 binding model.
However, if addition of the sandwich antibody produces a binding event, then the sandwich antibody binds to a different epitope on human TREM2 than the load antibody and the two antibodies are categorized into different epitope bins.

| Binder | sandwich binding signal |
| --- | --- |
| B1 | 0.434 |
| B2 | 0.303 |
| B3 | 0.303 |
| B4 | -0.055 |

Biological target: T1, recombinant soluble human TREM2 protein …
Assay: Octet BLI binning; competitor: load Ab 6E7
Method in brief: as §1

| Binder | sandwich binding signal |
| --- | --- |
| B1 | 0.009 |
| B2 | -0.012 |
| B3 | -0.01 |
| B4 | 0.514 |

Biological target: T2, human TREM2 on cells
Assay: cell-based or functional assay
Remark: another data set of the same source

| Binder | Emax (% maximum activation compared to RnD antibody) [%] | pSyk EC50, differentiated THP-1 cells [nM] |
| --- | --- | --- |
| B1 | 273 | 0.899 |
| B2 | 456 | 1 |
| B3 | 460 | 0.462 |
| B4 | 195 | 0.594 |

Biological target: T1, recombinant soluble human TREM2 protein …
Assay: Octet BLI binning; competitor: load Ab 24G6
Method in brief: as §1

| Binder | sandwich binding signal |
| --- | --- |
| B1 | 0.412 |
| B2 | 0.317 |
| B3 | 0.338 |
| B4 | 0.328 |

Biological target: T1, recombinant soluble human TREM2 protein …
Assay: Octet BLI binning; competitor: load Ab 10E3
Method in brief: as §1

| Binder | sandwich binding signal |
| --- | --- |
| B1 | 0.051 |
| B2 | -0.024 |
| B3 | -0.019 |
| B4 | 0.222 |

Biological target: T1, recombinant soluble human TREM2 protein …
Assay: Octet BLI binning; competitor: load Ab 32E3
Method in brief: as §1

| Binder | sandwich binding signal |
| --- | --- |
| B1 | 0.079 |
| B2 | 0.007 |
| B3 | 0.01 |
| B4 | 0.338 |

Biological target: T1, recombinant soluble human TREM2 protein …
Assay: Octet BLI binning; competitor: load Ab 26A10
Method in brief: as §1

| Binder | sandwich binding signal |
| --- | --- |
| B1 | 0.475 |
| B2 | 0.367 |
| B3 | 0.371 |
| B4 | -0.052 |

Biological target: T1, recombinant soluble human TREM2 protein …
Assay: Octet BLI, antibody on anti-human Fc sensor, 25 C
Procedure: (§2) To quantitate the binding affinity of agonist antibodies for human TREM2, association and dissociation rate constants as well as the equilibrium dissociation constant were determined using anti-human Fc (Kinetic) sensors on an Octet® HTX instrument (Pall ForteBio). Agonist anti-TREM2 antibodies were made up in DMEM null media, 250 μL at 10 μg/mL. The, 250 uL of assay buffer (10 mM Tris (pH 7.6), 0.1% Triton X-100, 150 mM NaCl, 1mM CaCl₂, and 1 mg/mL BSA) was added to the antibody solutions to a final volume of 500 μL and final antibody concentration of 5 μg/mL. The anti-human Fc sensor was pre-incubated in 200 μL of the assay buffer for a minimum of 10 minutes. The sensor was then regenerated for 5 seconds in 10 mM glycine pH 1.5. Test agonist anti-TREM2 antibodies were loaded onto the sensor for 2 minutes, and baseline measurements were taken for 2 minutes. […] The recombinant TREM2 proteins were allowed to associate with the antibody-loaded sensor for 10 minutes, and then dissociation was measured for 10 minutes. The assay was conducted at 25° C. Experimental kinetic results were globally fit to a 1:1 binding model in order to determine the association and dissociation rate constants as well as the equilibrium dissociation constant.

| Binder | Kd [nM] |
| --- | --- |
| B1 | 2.6 |
| B2 | 10.3 |
| B3 | 11 |
| B4 | 2.1 |

Biological target: T3, recombinant soluble cynomolgus TREM2 …
Assay: Octet BLI, antibody on anti-human Fc sensor, 25 C
Procedure: as §2

| Binder | Kd [nM] |
| --- | --- |
| B1 | 2.5 |
| B2 | 11.3 |
| B3 | 8.71 |
| B4 | 1.6 |

Biological target: T1, recombinant soluble human TREM2 protein …
Assay: Octet BLI binning; competitor: load Ab 13E7
Method in brief: as §1

| Binder | sandwich binding signal |
| --- | --- |
| B1 | 0.051 |
| B2 | -0.019 |
| B3 | -0.017 |
| B4 | 0.259 |
